The record followed here is publication PMC3706463, “The Asymmetric Binding of PGC-1α to the ERRα and ERRγ Nuclear Receptor Homodimers Involves a Similar Recognition Mechanism” (PLoS ONE, 2013).

The labels stand for the following.
T1: PGC-1α NTD (1–285) (human, UniProt Q9UBK2 1-285)
T1 construct: PGC-1α, human, residues 1-285, holds motifs L2 and L3; source: cloned in pET24b
T1 sequence (looked up): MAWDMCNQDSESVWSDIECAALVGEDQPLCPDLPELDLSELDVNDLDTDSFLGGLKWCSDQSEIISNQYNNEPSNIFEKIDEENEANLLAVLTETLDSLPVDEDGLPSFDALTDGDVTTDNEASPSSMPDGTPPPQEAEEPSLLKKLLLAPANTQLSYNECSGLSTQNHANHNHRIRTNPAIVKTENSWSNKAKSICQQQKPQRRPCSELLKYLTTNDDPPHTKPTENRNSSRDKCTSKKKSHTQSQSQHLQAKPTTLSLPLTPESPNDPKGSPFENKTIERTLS

T2: ERRα LBD (ERRα-189-423) homodimer (UniProt P11474 189-423)
T2 construct: The His6-tag of ERR was cleaved with thrombin for SAXS and left on ERRα for ESI-MS; nothing is said for ITC and native PAGE; also called ERR LBD; source: E. coli BL21 (DE3), purified (HisTrap, SEC)
T2 sequence (looked up): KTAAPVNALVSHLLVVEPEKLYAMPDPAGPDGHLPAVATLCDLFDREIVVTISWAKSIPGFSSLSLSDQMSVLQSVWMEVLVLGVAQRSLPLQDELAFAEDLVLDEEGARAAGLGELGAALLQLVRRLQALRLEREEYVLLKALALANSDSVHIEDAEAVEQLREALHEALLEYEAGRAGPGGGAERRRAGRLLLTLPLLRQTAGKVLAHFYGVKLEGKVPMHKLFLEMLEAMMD

T3: ERRγ LBD (ERRγ 229-458) homodimer (UniProt P62508 229-458)
T3 construct: Cloned in pET15b; The His6-tag of ERR was cleaved with thrombin for SAXS; nothing is said for ITC and native PAGE; also called ERR LBD; source: E. coli BL21 (DE3), purified (HisTrap, SEC)
T3 sequence (looked up): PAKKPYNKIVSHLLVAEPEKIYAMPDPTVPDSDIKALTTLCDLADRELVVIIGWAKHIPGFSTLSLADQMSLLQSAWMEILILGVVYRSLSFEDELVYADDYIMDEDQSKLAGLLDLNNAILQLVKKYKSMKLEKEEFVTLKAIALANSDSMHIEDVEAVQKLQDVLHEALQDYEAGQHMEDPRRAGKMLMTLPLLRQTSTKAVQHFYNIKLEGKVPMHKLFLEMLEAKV

B1: ERRγ LBD (ERRγ 229–458) homodimer (domain or fragment, UniProt P62508 229-458, looked up)
chain: T3 sequence (looked up)
notes: also called ERR LBD; source: cloned in pET15b
B2: PGC-1α RID1 (122–235), wild type (domain or fragment, human, UniProt Q9UBK2 122-235, looked up)
chain: EASPSSMPDGTPPPQEAEEPSLLKKLLLAPANTQLSYNECSGLSTQNHANHNHRIRTNPAIVKTENSWSNKAKSICQQQKPQRRPCSELLKYLTTNDDPPHTKPTENRNSSRDK
modifications: 15N-labelled in the NMR experiments
notes: His6 is named only for RID2; source: cloned in pET24b
B3: PGC-1α RID1 (122-235), wild type (domain or fragment, human, UniProt Q9UBK2 122-235, looked up)
chain: B2 chain
notes: for ITC, native PAGE and SEC-MALS no cleavage of the PGC-1α tag is told; 15N-labelled for NMR; source: E. coli BL21 (DE3), purified (HisTrap, SEC); not shown: His6, N-terminal, kept
B4: ERRα LBD (ERRα-189-423) homodimer (domain or fragment, UniProt P11474 189-423, looked up)
chain: T2 sequence (looked up)
notes: also called ERR LBD; source: cloned in pET24b
B5: ERRα LBD (189-423) homodimer with uncleaved His6 tag (domain or fragment, UniProt P11474 189-423, looked up)
chain: T2 sequence (looked up)
notes: source: cloned in pET24b
B6: short peptide encompassing motif L2 of PGC-1α (peptide)
chain: EAEEPSLLKKLLLAPANTQ
modifications: Peptide limits are not printed in the supplied text; 137-155 is the commonly used PGC-1α L2 peptide around motif 144-148. Termini unknown.
B7: short peptide encompassing motif L3 of PGC-1α (peptide)
chain: QQQKPQRRPCSELLKYLTTNDD
modifications: Peptide limits are not printed in the supplied text; taken from the PGC-1α L3 peptide crystallised with ERRα (PDB 3D24, cited in the supplement). Termini unknown.
B8: PGC-1α RID2 (122–285) (domain or fragment, human, UniProt Q9UBK2 122-285, looked up)
chain: EASPSSMPDGTPPPQEAEEPSLLKKLLLAPANTQLSYNECSGLSTQNHANHNHRIRTNPAIVKTENSWSNKAKSICQQQKPQRRPCSELLKYLTTNDDPPHTKPTENRNSSRDKCTSKKKSHTQSQSQHLQAKPTTLSLPLTPESPNDPKGSPFENKTIERTLS
modifications: 15N-labelled in the NMR experiments
notes: PGC-1α, human, residues 122-285, holds motifs L2 and L3; also called His6-tagged PGC-1α RID2; source: cloned in pET24b; not shown: His6, N-terminal, kept

Data set [1] has as its target ERRγ LBD (ERRγ 229-458) homodimer (UniProt P62508). Kind of data set: ITC; PGC-1α RID wild type or LxxLL mutant (340-580 µM) injected into 40-70 µM ERR in the cell; 20°C; 20 mM Hepes pH 7.5, 120 mM NaCl, 0.2 % glycerol; one set of sites model. (ITC needs no label: the signal is the heat of the interaction.)
Data set [2] deals with ERRα LBD (ERRα-189-423) homodimer (UniProt P11474). Described as above.
Data set [3] concerns the molecule itself. Briefly: native MS; ESI-TOF under non-denaturing conditions, 200 mM ammonium acetate, pH 7.4.
Data set [4] has as its target T1, PGC-1α NTD (1–285). Briefly: SAXS; synchrotron solution scattering (X33 DESY, SWING SOLEIL), direct injection or SEC-coupled; free proteins and complexes. The settings on record: both partners purified.
In data set [5] the target is B1. Briefly: ITC; MicroCal iTC200, 20°C, pH 7.5, one set of sites model; apparent. The settings on record: both partners purified.
Data set [6] concerns the target B4. The description is as above. The note with it: both partners purified.
For data set [7], the target named is T2, ERRα LBD (ERRα-189-423) homodimer. Briefly: ITC; PGC-1α RID wild type or LxxLL mutant (340-580 µM) injected into 40-70 µM ERR in the cell; 20°C; 20 mM Hepes pH 7.5, 120 mM NaCl, 0.2 % glycerol; one set of sites model. The settings on record: both partners purified.
For data set [8], the target named is T3, ERRγ LBD (ERRγ 229-458) homodimer. The data set is described as above. The settings on record: both partners purified.
Data set [9] concerns the molecule itself. Kind of data set: SAXS; synchrotron solution scattering (X33 DESY, SWING SOLEIL), direct injection or SEC-coupled; free proteins and complexes.
For data set [10], the target named is B1. Briefly: not stated; binding of short PGC-1α peptides to ERR LBDs; told only in the discussion. The note with it: both partners purified.
Data set [11] concerns the target B4. The data set is described as above. The note with it: both partners purified.
In data set [12] the target is B1. Briefly: native MS; ESI-TOF under non-denaturing conditions, 200 mM ammonium acetate, pH 7.4. The note with it: both partners purified.
In data set [13] the target is B5. Described as above. The settings on record: both partners purified.

Values joined by “and” are separate entries in the source; they are usually repeats but may differ in a detail not shown here. Equal values may be shown once.

The term stoichiometry N denotes a count of units in the complex or per binding partner. Consider “PGC-1α RID1 L2m (LKKLL to LKKAA) (from UniProt Q9UBK2 122-235) (domain or fragment)”, for which the values for the stoichiometry N in data set [1] and in [2] were 0.605 and 0.846, respectively.
Turning to “PGC-1α RID1 L3m (LLKYL to AAKYL) (from UniProt Q9UBK2 122-235) (domain or fragment)”, the stoichiometry N in [1] was 0.793; in data set [2], 0.483.
With B1, the “stoichiometry N” value in data set [3] came out at 2. Besides, the binding result in data set [4] is reported as “binds”.
Regarding B2, the Kd worked out at 53 ± 3 nM in data set [5] and 71 ± 6 nM in data set [6].
For the molecule B3, the “stoichiometry N” value was determined as 0.94 ± 0.001 in [7] and 0.932 ± 0.001 in [8].
For the molecule B4, the “stoichiometry N” value in data set [9] is 2 and 6.
As for B5, the “stoichiometry N” value in data set [3] was found to be 2.
In the case of B6, the Kd in [10] amounted to 1200 nM; in [11], 6100 nM.
B7: the Kd in data set [10] was 1300 nM; in [11] it was 4100 nM.
On to B8, for which the “stoichiometry N” value in data set [12] and in [13] was 1 PGC-1α RID2 molecule per ERR homodimer throughout.
